The source of these data is US20150284723A1 (MEDICAL DIAGNOSTIC LABORATORIES, published 2015).

For test [1], the target named is protein phosphatase 2A (PP2A). The test can be described thus: cell-based or functional assay.
In test [2] the target is T1, FLAG-tagged PME-1 S156A (catalytically inactive mutant) (human, UniProt Q9Y570 1-386).
T1 construct: Expressed in stably transfected ECC-1 cells and pulled down with FLAG resin; also called FLAG-PME-1 S156A; FLAG PME-1 S156A; not shown: FLAG tag
T1 sequence (looked up): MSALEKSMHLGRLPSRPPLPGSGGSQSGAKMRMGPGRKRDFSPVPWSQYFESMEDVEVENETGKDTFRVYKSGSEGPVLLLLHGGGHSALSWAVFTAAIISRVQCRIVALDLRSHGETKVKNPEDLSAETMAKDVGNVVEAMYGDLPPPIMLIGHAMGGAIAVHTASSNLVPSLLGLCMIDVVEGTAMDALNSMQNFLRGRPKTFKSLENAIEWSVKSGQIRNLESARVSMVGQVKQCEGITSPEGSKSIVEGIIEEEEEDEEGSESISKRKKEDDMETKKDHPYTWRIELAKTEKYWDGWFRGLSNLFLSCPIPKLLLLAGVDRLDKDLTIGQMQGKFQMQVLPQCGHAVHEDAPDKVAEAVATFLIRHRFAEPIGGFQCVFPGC
The test can be described thus: FLAG co-immunoprecipitation from ECC-1 lysate, Western blot with anti-Ppp6c. The source says:
(§1) Cells (post-transfection) were collected and cellular protein was extracted. Input depicts the relative expression of each protein in total cell lysate, whereas the elution depicts proteins that were immunoprecipitated with FLAG resin.
(§2) There are other protein phosphatases in the same family as PP2A in cells that share some similarity to PP2A. In this experiment, we examined if PME-1 binding to Ppp2ca is specific over other phosphatases. We chose to examine phosphatase 4 (PP4) and phosphatase 6 (PP6) since the C-terminal tail of the catalytic subunit of PP2A (i.e., Ppp2ca) is TPDYFL (amino acids 304-309 of SEQ ID NO: 12) (the substrate for PME-1 demethylation) is similar to that of protein phosphatase 4 (i.e., Ppp4c) (VADYFL) (amino acids 302-307 of SEQ ID NO: 13) and phosphatase 6 (i.e., Ppp6c), (TTPYFL) (amino acids 300-305 of SEQ ID NO: 14), respectively. Specifically, we examined if PME-1 may bind and demethylate PP4 or PP6.
For orientation: A western blot detects proteins with antibodies after separation by electrophoresis.

Test [3] concerns the target T2, FLAG-tagged PME-1 (wild-type protein methylesterase 1) (human, UniProt Q9Y570 1-386).
T2 construct: Expressed in stably transfected ECC-1 cells and pulled down with FLAG resin; also called FLAG-PME-1; not shown: FLAG tag
T2 sequence (looked up): T1 sequence (looked up) with A156S
Described as above.
Source text: as §1, §2

Where a chain is given by its changes, count along the chain named.

Consider “PME-1 protein (endogenous, over-expressed or depleted in cells) (from UniProt Q9Y570 2-386) (enzyme)”, for which, in test [1], the PP2A phosphatase activity (RL95-2 cells over-expressing PME-1) came out at 90 % decrease and the PP2A phosphatase activity (RL95-2 cells, shRNA against PPME1) (fold increase) came out at 30.

B1: Ppp6c, the catalytic subunit of PP6 (endogenous) (enzyme)
chain: MAPLDLDKYVEIARLCKYLPENDLKRLCDYVCDLLLEESNVQPVSTPVTVCGDIHGQFYDLCELFRTGGQVPDTNYIFMGDFVDRGYYSLETFTYLLALKAKWPDRITLLRGNHESRQITQVYGFYDECQTKYGNANAWRYCTKVFDMLTVAALIDEQILCVHGGLSPDIKTLDQIRTIERNQEIPHKGAFCDLVWSDPEDVDTWAISPRGAGWLFGAKVTNEFVHINNLKLICRAHQLVHEGYKFMFDEKLVTVWSAPNYCYRCGNIASIMVFKDVNTREPKLFRAVPDSERVIPPRTTTPYFL
notes: Endogenous protein in the lysate of the human ECC-1 cell line; also called phosphatase 6
Consider B1, for which the binding result in test [2] and in test [3] was “no binding” in each case.
